From the nanobody polyreactivity screen of Harvey et al. (2022)

Test: yeast display, Sf9 membrane polyspecificity reagent, FACS + sequencing; frameworks hold sequencing errors
Procedure, shortened: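 Using colony PCR, genes from sorted yeast display clones were amplified, then sequenced on MiSeq at 2 × 250 and filtered by CDR length. The clones had been stained with 10% biotinylated, detergent-solubilized Sf9 membrane reagent for 1 hour at 4 °C and sorted by FACS into low and high (top ~1%) gates on anti-HA and streptavidin fluorescence. Polyreactivity labels come from the gate of origin.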

| Sequence | polyreactivity (PSR sort gate) |
| --- | --- |
| QVQLVESGGGLVQAGGSLRLSCAASGSIVLIYAMGWYRQAPGKERELVAAITGRGGRTYYADSVKGRFTISRDNAKNTVYLQLNSLKPEDTAVYYCAADSVYTLGLKYDYWGQGTQVTVSS | high polyreactivity |
| QVQLVESGGGLVQAGGSLRLSCAASGSIVYRYAMGWYRPAPGKERELVAAISYSGGSTYYADSVKGRFTISRDNAKNTVYLQMNSLKPEDTAVYYCAKDYPPPISDYSRYYGYGYWGQGTQVTVSS | low polyreactivity |
| QVQLVESGGGLVQAGGSLRLSCAASGSIVYYYAMGWYRQAPGKERELVAAITRSGGSTYYADSVKGRFTISRDNAKNTVYLQMNSLKPEDTSVYYCAKDAHAYRDLDYWGQGTQVTVSS | low polyreactivity |
| QVQLVESGGGLVQAGGSLRLSCAASGSIYAVYAMGWYRPAPGKERELVATISGRGGSTYYADSVKGRFTISRDNAKNTVYLQMNSLKPEDTAVYYCNARVLFRRERMDSWGQGTQVTVSS | high polyreactivity |
| QVQLVESGGGLVQAGGSLRLSCAASGSIYGGYAMGWYRQAPGKEREFVAAISRSGSSTYYADSVKGRFTISRDNAKNTVYLQMNSLKPEDTAVYSCAARYAGKAPGYRRYDYWGQGTQVTVSS | high polyreactivity |
| QVQLVESGGGLVQAGGSLRLSCAASGSIYGLYAMGWSREAPGKEREVVATITESGGSTYYADSVKGRFTISRDNAKNTVYLQMKSLKPEDTAVYYCHSDEVSAQYDDWGQGTQVTVSS | low polyreactivity |
| QVQLVESGGGLVQAGGSLRLSCAASGSIYGPYAMGWYRQAPGKERELVAAIAESSGSTYYADSVKGRFTISRDNAKNTVYLQMNRMKPEDTAVYYCAAEQITGWSWVWGSWYDYWGQGTQVTVSS | low polyreactivity |
| QVQLVESGGGLVQAGGSLRLSCAASGSIYGTNAMGWYRKAPGKEREFVASITWGGGTYYADSVKGRFTISRDNAKNTVYFQMNSLKQEDSAVYYCATERVYTVYYDYDSWGQGTQVTVSS | low polyreactivity |
| QVQLVESGGGLVQAGGSLRLSCAASGSIYIYYAMGWYRQAPVKERELVADITFSAGSNTYYADSVKGRFTISRDNAKNTVYLQMNSLKPEDTAVYYCNADRGFFGSITEYDYWGQGTQVTVSS | low polyreactivity |
| QVQLVESGGGLVQAGGSLRLSCAASGSIYRYAMGSYRQAPGKERELVAAINFNGGRTYYADSVKGRFTISRDNAKNTVYLQMNSLKPEDTAVYYCAAVRSSNQGGFDYWGQGTQVTVSS | high polyreactivity |
| QVQLVESGGGLVQAGGSLRLSCAASGSIYWLYAMGWYRQAPGKERELVAAIDSGDSTKNADSVKGRFTISRDNAKNTVYLQMNSLKPEDTAVYYCNASRRYHVRAPYDYWGQGTHVTVSS | low polyreactivity |
| QVQLVESGGGLVQAGGSLRLSCAASGSIYWYAMGWYRQAPGKERQLVAAITKSGSSTYYADSVKGRFTISRDNAKNTVYLQMNSLIPEDTAVYYCAARRAVSGGVRTYYWGQGTQVTVSS | high polyreactivity |
| QVQLVESGGGLVQAGGSLRLSCAASGSIYYNAMGWYRQAPGKERELVASISTGDSTDYADSVKGRFTISRDNAKNTVYLQMNSLKPEDTAVYYCAADTRLGYWDDYWGQGTQVTVSS | low polyreactivity |
| QVQLVESGGGLVQAGGSLRLSCAASGSIYYSYAMGWYRQAPGKERELVARITKRGGRTYYADSVKGRFTISRDNAKNTVYLQMNSLKPEDTAVYYCAATTGHRTYRYYYWGQGTQVTVSS | high polyreactivity |
| QVQLVESGGGLVQAGGSLRLSCAASGSIYYWYTMGWYRQAPGKERELVAAISLSDGRTYYADSVKGRFTISRDNAKNTVYLQMNSLKPEDTAVYYCAADYRDASGYYRYDYWGQGTQVTVSS | low polyreactivity |
| QVQLVESGGGLVQAGGSLRLSCAASGSKFKRNAMVWYRQAPGKERELVASISSGGSTHYADSVNGRFTISRDNSKNTVYLEMNSLKPEDTAVYYCAATSIRWSVGSFRRDYWGQGTQVTVSS | low polyreactivity |
| QVQLVESGGGLVQAGGSLRLSCAASGSLFEINAMGWYRPAPGKERELVAAITGSGGSTHYADSVKGRFTISRDNAKNTVYLQMNSLKPEDTAVYYCSAVPRYQYGYWGQGTQVTVSS | low polyreactivity |
| QVQLVESGGGLVQAGGSLRLSCAASGSLFGVNAMGWYRQAPGKERELVASISLSDDRTYYADSVKGRFTISRDIAKNTDYLQMNSLKPEDTAVYYCARRLLWYWDVDPSLAEYDYWGQGTQVTVSS | low polyreactivity |
| QVQLVESGGGLVQAGGSLRLSCAASGSLFIANAMGWYRQAPGKERELVAAISWSGGRTYYADSVKGRFTISRDNAKNTVYLQMNSLKPEDTAVYYCAAEWEFYYEYDYWGQGTQVTVSS | high polyreactivity |
| QVQLVESGGGLVQAGGSLRLSCAASGSLFPLYAMGWYRQAPGKERELVAAITWRGGSTYYADSVKGRFTISRDNAKNTVYLQMNSLKPEDTAVYYCNRDLVPRFDYWGQGTQVTVSS | low polyreactivity |
| QVQLVESGGGLVQAGGSLRLSCAASGSLFSGNAMGWYRQAPGKEREFVAAISRSGSSTYYADSVKGRFTISRDNAKNPVYLQMNSLKPEDTAVYYCASRFGDMGYWGQGTQVTVSS | high polyreactivity |
| QVQLVESGGGLVQAGGSLRLSCAASGSMFTNYAMGWYRQAPGQERELVAAISVGGGRTYYADSVKGRFTISRDNAQNTVYVQLNSLKPEDTAVYYCAARYPFGSLGRYGYWGQGTQVTVSS | high polyreactivity |

| Sequence | polyreactivity (PSR sort gate) |
| --- | --- |
| QVQLVESGGGLVQAGGSLRLSCAASGSMLKSYAMGWYIQAPGKESELVAAITYRDGSTYYADSVKGRFTISRDNAKNTVYLQMNSLKPEDTAVYYCNARWARGRYAQYGGLDREYDYWGQGTQVTVSS | high polyreactivity |
| QVQLVESGGGLVQAGGSLRLSCAASGSNFAAYTMGWYRQAPGKERELVAAISVSTVSTYYADSVKGRFTISRDNAKNTVYLQMYSLTPEDTAVYYCIADATDSYPEKYEHDSWGQGTQVTVSS | low polyreactivity |
| QVQLVESGGGLVQAGGSLRLSCAASGSNFDNAKGWYRQAPGKERELVAAITSGGITNYADSVKGRFTNSRDNAKKTVYLQMNSQKPEDTAVYYCNTMSPTQTKYDYWGQGTQVTVSS | low polyreactivity |
| QVQLVESGGGLVQAGGSLRLSCAASGSNFDPNAMGWYRQAPGKERELVAAISWSGGSTYYADSVKGRFTISRDNAKNTVYLQMNSLKPEDTAVSYCNAQFYDSYSYTNDDWGQGTLVTVSS | low polyreactivity |
| QVQLVESGGGLVQAGGSLRLSCAASGSNFGFYAMGWYRQAPGKERELVAAIDSGDSTNYADSVKGRFTISRDNAKNTVYLQMNSLKPEDTAVYYCNAEAWWYFWFDYWGQGTQVTVSS | low polyreactivity |
| QVQLVESGGGLVQAGGSLRLSCAASGSNFGPYAMGWSRPAPGKEMELVASITWTGGRTYYADSVKGRFTISLDNAKNTVYLQMNSLKPEDTAVYYCAADYSPSTWYLYYTLYYYWGQGTQVTVSS | low polyreactivity |
| QVQLVESGGGLVQAGGSLRLSCAASGSNFGPYAMGWYRQAPGKERELVAAISYSSVRTYYADSVKGRFTISRDNAKNTVYLQMNSLKPEVTAVYYCNAYFRYAYPSKMDYWGQGTQVTVSS | low polyreactivity |
| QVQLVESGGGLVQAGGSLRLSCAASGSNFHGNSLGRYRQGTGKERELVAAISQSGDSTYYADSVKGRFTISRDNAKNTVYLQMNSLKPEDTAVYYCAARSGYRGYYHFYYWGQGTQVTVSS | high polyreactivity |
| QVQLVESGGGLVQAGGSLRLSCAASGSNFLAYAMGWYRQAPGKERELVADISWGGGSTSYADSVKGRFTISRDNAKNTVYLQMNSLKPEDTAVYYCNKGSFSKRRDYYWGQGTQVTVSS | high polyreactivity |
| QVQLVESGGGLVQAGGSLRLSCAASGSNFLGNAMGWSIQAPGKERELVAAISSITGRTYYADSVKGRFTISRDNAKNTVYLQMNSLKPEDTAVYYCAAVQGANYYNEFDYWGQGTQVTVSS | high polyreactivity |
| QVQLVESGGGLVQAGGSLRLSCAASGSNFLHNAMGWYRQAPGKERELDAAISGTGGRTYYADSVKGRFTISRDTANNTVYLQMNGLKPEDTAVYYWAARGSHVSIPRYNYWGQGTQVTVSS | high polyreactivity |
| QVQLVESGGGLVQAGGSLRLSCAASGSNFPHYTMGWYRQAPAKERELVAAISNYGSSTYYADSVKGRFTISRDNAKNTVYLQMNSLKPEDTAVYYCNADDYGYSPGVNYWGQGTQVTVSS | low polyreactivity |
| QVQLVESGGGLVQAGGSLRLSCAASGSNFRGNAKGWSRQAPGKERELVAAISKSGGSTYYADSVKGRFTISRDNAKNTVYLQMNSLKPEDTAVYYCAARTTYLYGMYYWGQGTQVTVSS | low polyreactivity |
| QVQLVESGGGLVQAGGSLRLSCAASGSNFRLYAMGWYRHAPGKERELVATISGSAGRTYYADSVKGRFTISRDYAKNTVYLQMNSLKPEDTAVYYCAARWYQEYFWGQGTQVTVSS | high polyreactivity |
| QVQLVESGGGLVQAGGSLRLSCAASGSNFRVNAMGWYRQAPGKERELVAASSSGGSTHYADSVKGRFTISRDNAKNTFYLQMISLKPEDTAVYYCAVRYALGPYLWYYWGQGTQVTVSS | high polyreactivity |
| QVQLVESGGGLVQAGGSLRLSCAASGSNFRVYAMGWYSQAAGKERELVAAISRSGSITYYADSVKGRFTISRDNAKNTVYLQMNSLKPEDTAVYYCAARTYCRFTASTYYYWGQGTQVTVSS | high polyreactivity |
| QVQLVESGGGLVQAGGSLRLSCAASGSNFSAYMGWYRQAPGKERELVADISSTGTTYYADSVKGRFTISRDNAKNTVYLQMNSLKPEDTAVYYCNADYFLQQEVTFDYWGQGSQVTVSS | high polyreactivity |
| QVQLVESGGGLVQAGGSLRLSCAASGSNFSGNAMGWYRQAPGKERELVAAISRRGGRTYYADSVKGRFTISRDNAKNTVYLQMNSLIPEDTAVYYCNADSVRYDYSAYDYEYWGQGTQVNVSS | high polyreactivity |
| QVQLVESGGGLVQAGGSLRLSCAASGSNFSRYAMGWYTQAPGKERELVAAISKSGGSTYYADSVKGRFTISRDNAKNTVYLEMNSLIPEDTAVYYCNARDSPVQRRAEPYGYWGQGTQVTVSS | high polyreactivity |
| QVQLVESGGGLVQAGGSLRLSCAASGSNFSYYTMGWYRRATGKERELVAGITWSGGGTSYADSVKGRFTISRDNAKNTVYVQMNSLKPEDTAVYYCAAVDIGRYYRLDYWGQGTQVTVSS | low polyreactivity |
| QVQLVESGGGLVQAGGSLRLSCAASGSNFTYYAMGWYRQAPGKEREFVAAINRSGGSTYYADSVKGRFTISRDNAKNTVYLQMNSLKPEDTAVYYCAARRGSGALRYNYWGQGTQVTVSS | high polyreactivity |
